Laboratory results: patent publication US20180371075A1

Target: human IL-3 expressed by E. coli (Peprotech), non-glycosylated (human) (UniProt P08700)
Experiment: cell-based or functional assay

Sequence of UniProt P08700 (P08700 28-152, tags or fused parts left off): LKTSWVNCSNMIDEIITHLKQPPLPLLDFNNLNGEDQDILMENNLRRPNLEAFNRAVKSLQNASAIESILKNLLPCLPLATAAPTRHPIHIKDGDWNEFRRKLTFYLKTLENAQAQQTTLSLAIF

IC50, IL-3 dependent growth of TF1 cells: 0.033 µg/mL
Substance: R&D monoclonal anti-IL-3 antibody clone 4806 (R&D Systems, Inc., catalogue No. MAB203)
